In US20060257938A1, “Method of screening for drugs that block ligand binding to a lipid binding protein” (priority 2005, published 2006):

Key:
Type in all cases: binding
[1] = Probe fluorescence ratio response to arachidonic acid relative to ADIFAB2; conditions: Arachidonic acid; response relative to ADIFAB2
In short: (§1)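 Each fatty acid's response was expressed relative to ADIFAB2, the rI-FABP-L72A probe, as ΔR/ΔRreference. ΔR is the change in the background-corrected two-wavelength intensity ratio R=Fλ1/Fλ2 from its analyte-free baseline R0. Emission was read near about 420-480 nm for unbound and about 495-580 nm for FFA-bound probe.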

[2] = Probe fluorescence ratio response to linolenic acid relative to ADIFAB2; conditions: response relative to ADIFAB2
In short: as §1

[3] = Probe fluorescence ratio response to linoleic acid relative to ADIFAB2; conditions: response relative to ADIFAB2
In short: as §1

[4] = Probe fluorescence ratio response to oleic acid relative to ADIFAB2; conditions: response relative to ADIFAB2
In short: as §1

[5] = Probe fluorescence ratio response to palmitic acid relative to ADIFAB2; conditions: response relative to ADIFAB2
In short: as §1

| Molecule | DR/DR AA [1] | DR/DR LNA [2] | DR/DR LA [3] | DR/DR OA [4] | DR/DR PA [5] |
| --- | --- | --- | --- | --- | --- |
| 51T3, 72A (protein, listed as Rattus norvegicus, PEPTIDE (1)...(131) wild-type rat intestinal fatty acid binding protein) AFDGTWKVDRNENYEKFMEKMGINVVKRKLGAHDNLKLTITQEGNKFTVKTSSNFRNIDVVFELGVDFAYSAADGTELTGTWTMEGNKLVGKFKRVDNGKELIAVREISGNELIQTYTYEGVEAKRIFKKE | 1.60 | 1.60 | 1.65 | 1.44 | 0.71 |
| 51Y1, 72A (protein, listed as Rattus norvegicus, PEPTIDE (1)...(131) wild-type rat intestinal fatty acid binding protein) AFDGTWKVDRNENYEKFMEKMGINVVKRKLGAHDNLKLTITQEGNKFTVKYSSNFRNIDVVFELGVDFAYSAADGTELTGTWTMEGNKLVGKFKRVDNGKELIAVREISGNELIQTYTYEGVEAKRIFKKE | 1.38 | 1.44 | 1.50 | 1.38 | 0.72 |
| 55Q1, 72A (protein, listed as Rattus norvegicus, PEPTIDE (1)...(131) wild-type rat intestinal fatty acid binding protein) AFDGTWKVDRNENYEKFMEKMGINVVKRKLGAHDNLKLTITQEGNKFTVKESSNQRNIDVVFELGVDFAYSAADGTELTGTWTMEGNKLVGKFKRVDNGKELIAVREISGNELIQTYTYEGVEAKRIFKKE | 0.60 | 0.49 | 0.47 | 0.54 | 0.43 |
| 55R1, 72A (protein, listed as Rattus norvegicus, PEPTIDE (1)...(131) wild-type rat intestinal fatty acid binding protein) AFDGTWKVDRNENYEKFMEKMGINVVKRKLGAHDNLKLTITQEGNKFTVKESSNRRNIDVVFELGVDFAYSAADGTELTGTWTMEGNKLVGKFKRVDNGKELIAVREISGNELIQTYTYEGVEAKRIFKKE | 0.40 | 0.37 | 0.41 | 0.39 | 0.30 |
| 55N1, 72A (protein, listed as Rattus norvegicus, PEPTIDE (1)...(131) wild-type rat intestinal fatty acid binding protein) AFDGTWKVDRNENYEKFMEKMGINVVKRKLGAHDNLKLTITQEGNKFTVKESSNNRNIDVVFELGVDFAYSAADGTELTGTWTMEGNKLVGKFKRVDNGKELIAVREISGNELIQTYTYEGVEAKRIFKKE | 0.34 | 0.30 | 0.29 | 0.27 | 0.22 |
| 55E, 72A (protein, listed as Rattus norvegicus, PEPTIDE (1)...(131) wild-type rat intestinal fatty acid binding protein) AFDGTWKVDRNENYEKFMEKMGINVVKRKLGAHDNLKLTITQEGNKFTVKESSNERNIDVVFELGVDFAYSAADGTELTGTWTMEGNKLVGKFKRVDNGKELIAVREISGNELIQTYTYEGVEAKRIFKKE | 0.21 | 0.21 | 0.21 | 0.21 | 0.17 |
| 55P1, 72A (protein, listed as Rattus norvegicus, PEPTIDE (1)...(131) wild-type rat intestinal fatty acid binding protein) AFDGTWKVDRNENYEKFMEKMGINVVKRKLGAHDNLKLTITQEGNKFTVKESSNPRNIDVVFELGVDFAYSAADGTELTGTWTMEGNKLVGKFKRVDNGKELIAVREISGNELIQTYTYEGVEAKRIFKKE | 1.01 | 0.96 | 1.05 | 0.93 | 0.54 |
| 55I1, 72A (protein, listed as Rattus norvegicus, PEPTIDE (1)...(131) wild-type rat intestinal fatty acid binding protein) AFDGTWKVDRNENYEKFMEKMGINVVKRKLGAHDNLKLTITQEGNKFTVKESSNIRNIDVVFELGVDFAYSAADGTELTGTWTMEGNKLVGKFKRVDNGKELIAVREISGNELIQTYTYEGVEAKRIFKKE | 1.08 | 0.89 | 0.83 | 0.90 | 0.77 |
| 55G1, 72A (protein, listed as Rattus norvegicus, PEPTIDE (1)...(131) wild-type rat intestinal fatty acid binding protein) AFDGTWKVDRNENYEKFMEKMGINVVKRKLGAHDNLKLTITQEGNKFTVKESSNGRNIDVVFELGVDFAYSAADGTELTGTWTMEGNKLVGKFKRVDNGKELIAVREISGNELIQTYTYEGVEAKRIFKKE | 0.19 | 0.23 | 0.22 | 0.19 | 0.18 |
| 55D1, 72A (protein, listed as Rattus norvegicus, PEPTIDE (1)...(131) wild-type rat intestinal fatty acid binding protein) AFDGTWKVDRNENYEKFMEKMGINVVKRKLGAHDNLKLTITQEGNKFTVKESSNDRNIDVVFELGVDFAYSAADGTELTGTWTMEGNKLVGKFKRVDNGKELIAVREISGNELIQTYTYEGVEAKRIFKKE | 0.11 | 0.12 | 0.12 | 0.10 | 0.10 |
| 51V3, 72A (protein, listed as Rattus norvegicus, PEPTIDE (1)...(131) wild-type rat intestinal fatty acid binding protein) AFDGTWKVDRNENYEKFMEKMGINVVKRKLGAHDNLKLTITQEGNKFTVKVSSNFRNIDVVFELGVDFAYSAADGTELTGTWTMEGNKLVGKFKRVDNGKELIAVREISGNELIQTYTYEGVEAKRIFKKE | 1.52 | 1.53 | 1.64 | 1.43 | 0.73 |
| 55A1, 72A (protein, listed as Rattus norvegicus, PEPTIDE (1)...(131) wild-type rat intestinal fatty acid binding protein) AFDGTWKVDRNENYEKFMEKMGINVVKRKLGAHDNLKLTITQEGNKFTVKESSNARNIDVVFELGVDFAYSAADGTELTGTWTMEGNKLVGKFKRVDNGKELIAVREISGNELIQTYTYEGVEAKRIFKKE | 0.33 | 0.36 | 0.34 | 0.30 | 0.28 |
| 55L1, 72A (protein, listed as Rattus norvegicus, PEPTIDE (1)...(131) wild-type rat intestinal fatty acid binding protein) AFDGTWKVDRNENYEKFMEKMGINVVKRKLGAHDNLKLTITQEGNKFTVKESSNLRNIDVVFELGVDFAYSAADGTELTGTWTMEGNKLVGKFKRVDNGKELIAVREISGNELIQTYTYEGVEAKRIFKKE | 0.86 | 0.72 | 0.71 | 0.82 | 0.63 |
| 55M1, 72A (protein, listed as Rattus norvegicus, PEPTIDE (1)...(131) wild-type rat intestinal fatty acid binding protein) AFDGTWKVDRNENYEKFMEKMGINVVKRKLGAHDNLKLTITQEGNKFTVKESSNMRNIDVVFELGVDFAYSAADGTELTGTWTMEGNKLVGKFKRVDNGKELIAVREISGNELIQTYTYEGVEAKRIFKKE | 1.40 | 1.42 | 0.97 | 1.41 | 0.84 |
| 55H2, 72A (protein, listed as Rattus norvegicus, PEPTIDE (1)...(131) wild-type rat intestinal fatty acid binding protein) AFDGTWKVDRNENYEKFMEKMGINVVKRKLGAHDNLKLTITQEGNKFTVKESSNHRNIDVVFELGVDFAYSAADGTELTGTWTMEGNKLVGKFKRVDNGKELIAVREISGNELIQTYTYEGVEAKRIFKKE | 0.36 | 0.32 | 0.38 | 0.27 | 0.26 |
| 51W2, 72A (protein, listed as Rattus norvegicus, PEPTIDE (1)...(131) wild-type rat intestinal fatty acid binding protein) AFDGTWKVDRNENYEKFMEKMGINVVKRKLGAHDNLKLTITQEGNKFTVKWSSNFRNIDVVFELGVDFAYSAADGTELTGTWTMEGNKLVGKFKRVDNGKELIAVREISGNELIQTYTYEGVEAKRIFKKE | 1.69 | 1.70 | 1.77 | 1.55 | 0.80 |
| 55K1, 72A (protein, listed as Rattus norvegicus, PEPTIDE (1)...(131) wild-type rat intestinal fatty acid binding protein) AFDGTWKVDRNENYEKFMEKMGINVVKRKLGAHDNLKLTITQEGNKFTVKESSNKRNIDVVFELGVDFAYSAADGTELTGTWTMEGNKLVGKFKRVDNGKELIAVREISGNELIQTYTYEGVEAKRIFKKE | 0.32 | 0.35 | 0.34 | 0.30 | 0.27 |
